The target in test [1] is T1, Coxsackievirus A6 (CVA6) A-particle (Coxsackievirus A6 strain TW-2007-00141).
T1 chain 1: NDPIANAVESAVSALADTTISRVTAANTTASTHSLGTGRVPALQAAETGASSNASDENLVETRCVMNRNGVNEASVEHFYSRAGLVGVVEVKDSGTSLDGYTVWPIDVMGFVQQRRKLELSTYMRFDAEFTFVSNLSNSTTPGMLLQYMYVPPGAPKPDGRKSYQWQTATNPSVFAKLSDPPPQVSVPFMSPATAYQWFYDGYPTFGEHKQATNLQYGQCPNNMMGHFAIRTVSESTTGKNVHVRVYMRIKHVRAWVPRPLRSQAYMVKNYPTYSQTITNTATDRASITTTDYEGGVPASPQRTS
T1 chain 2: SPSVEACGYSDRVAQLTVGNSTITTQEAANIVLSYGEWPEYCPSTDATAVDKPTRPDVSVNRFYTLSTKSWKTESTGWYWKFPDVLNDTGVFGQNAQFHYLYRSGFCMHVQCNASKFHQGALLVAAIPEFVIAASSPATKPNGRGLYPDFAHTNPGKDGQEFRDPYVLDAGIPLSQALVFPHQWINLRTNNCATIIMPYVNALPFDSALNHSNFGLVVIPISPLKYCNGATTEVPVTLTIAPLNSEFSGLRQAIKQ
T1 chain 3: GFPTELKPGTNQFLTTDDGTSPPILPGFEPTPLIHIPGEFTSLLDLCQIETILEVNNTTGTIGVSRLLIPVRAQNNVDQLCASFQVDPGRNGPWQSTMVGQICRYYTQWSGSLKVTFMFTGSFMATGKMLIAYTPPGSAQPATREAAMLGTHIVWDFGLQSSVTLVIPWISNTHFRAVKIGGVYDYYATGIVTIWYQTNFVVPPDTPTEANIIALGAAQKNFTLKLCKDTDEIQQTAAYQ
Put plainly: SPR. A general note: Surface plasmon resonance follows binding to a sensor surface in real time, without labels.

The target in test [2] is T2, Coxsackievirus A6 (CVA6) procapsid (Coxsackievirus A6 strain TW-2007-00141).
T2 chain 1: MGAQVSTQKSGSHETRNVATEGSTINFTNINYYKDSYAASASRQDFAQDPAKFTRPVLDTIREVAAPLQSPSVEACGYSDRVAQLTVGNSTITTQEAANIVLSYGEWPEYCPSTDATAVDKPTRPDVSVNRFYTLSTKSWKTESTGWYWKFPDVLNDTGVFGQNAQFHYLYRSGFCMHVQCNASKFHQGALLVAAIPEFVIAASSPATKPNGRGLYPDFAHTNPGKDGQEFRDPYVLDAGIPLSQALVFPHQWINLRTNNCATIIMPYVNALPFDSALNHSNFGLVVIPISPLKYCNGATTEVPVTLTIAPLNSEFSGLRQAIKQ
T2 chain 2: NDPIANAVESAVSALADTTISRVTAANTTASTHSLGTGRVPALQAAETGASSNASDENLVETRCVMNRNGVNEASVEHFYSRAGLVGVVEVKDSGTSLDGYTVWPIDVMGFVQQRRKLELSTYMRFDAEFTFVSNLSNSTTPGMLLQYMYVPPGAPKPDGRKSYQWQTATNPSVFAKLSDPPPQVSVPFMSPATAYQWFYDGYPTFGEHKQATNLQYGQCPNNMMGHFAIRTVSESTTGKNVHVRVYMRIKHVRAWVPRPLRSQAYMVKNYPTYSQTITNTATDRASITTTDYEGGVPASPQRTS
T2 chain 3: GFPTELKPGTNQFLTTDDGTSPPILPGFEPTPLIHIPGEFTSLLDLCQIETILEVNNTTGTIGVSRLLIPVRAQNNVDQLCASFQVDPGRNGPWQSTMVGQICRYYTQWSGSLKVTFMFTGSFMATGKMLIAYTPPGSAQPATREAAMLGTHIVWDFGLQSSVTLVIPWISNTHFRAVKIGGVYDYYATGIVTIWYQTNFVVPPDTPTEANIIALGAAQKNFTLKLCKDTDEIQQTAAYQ
Put plainly: ELISA. For orientation: ELISA stands for enzyme-linked immunosorbent assay.

The target of test [3] is T1, Coxsackievirus A6 (CVA6) A-particle. Put plainly: SPR.
Test [4] has the same target. Put plainly: SPR.

A word on the EC50: it is the concentration giving half of the maximal effect. The Kd is the concentration at which binding is half-saturated. A lower Kd goes with higher affinity. A word on the koff: it is the rate constant with which the complex falls apart. Lower therefore signals slow dissociation.

B1: neutralizing monoclonal antibody 1D5 (antibody, V domains shown)
VH: EVQLVESGGGLVKPGGSLKLSCAASGFAFSTYDMSWVRQTPEKRLELVAHISSGGGYIYYPDTVKGRFTISRDNAKNTLYLQMSSLKSEDTAMYYCTRQKGLYYGFDYWGQGTTLTVSS
VL: DIVMTQSHKFMSTSVGDRVSITCKASQDVNTAVAWYQQRPGQSPKLLIYSASYRYTGVPDRFTGSGSGTDFTFTISSVQAEDLAVYYCQQHYTTPHTFGGGTKLEIK
Regarding B1, the Ka in test [1] amounted to 2.41e+08 M⁻¹. Moreover, in test [2], the half-maximal effective concentration (EC50) came to 0.069 µg/mL. Besides, the equilibrium dissociation constant (Kd) in test [3] was determined as 4.14 nM. Further, the dissociation rate constant (koff) in test [4] came to 0.000634 s⁻¹.

For the origin of these results see publication PMC5593947 (2017).
